Results reported in patent US20260347399A1, “BRAIN PENETRATING PEPTIDES AND METHODS OF USE” (priority 2022, published 2026).
Ends that are not written are not given here.

Tests used:
Reelin = assay: Peptide-phage binding on ELISA plate; set-up: species or system human
Method: Reelin protein (#8546-MR-050; R&D Systems), NRP-1 b1b2 (wt and mutant) or 5% BSA was immobilized on Costar 96-Well ELISA plate (#3590, Corning Life Sciences, Tewksbury, MA, USA). The multiwell plates were coated with 20 μg/ml recombinant protein in 100 μl of PBS overnight at +4 °C, followed by blocking with 1% bovine serum albumin (BSA) in PBS overnight at +4 °C. The phage (5×10^8 pfu in 100 μl of PBS-BSA) was incubated overnight at +4 °C, followed by 6 washes with PBS containing 1% BSA and 0.1% Tween-20 (washing buffer) to remove background phages. BLT5615 OD600=0.5 containing 2 mM IPTG was used to recover the phages and determine the titer of samples.
Next, an affinity chromatography was performed to identify a receptor of the CVGTNCY (SEQ ID NO:2), and selected a receptor candidate, which is a secreted extracellular matrix protein Reelin. CVGTNCY (SEQ ID NO:2) binding to Reelin protein was tested by cell free method on ELISA plate. Recombinant human Reelin protein (Ser1221-Gln2666; 163 kDa) was used to coat the ELISA plate and the CVGTNCY (SEQ ID NO:2) peptide-phage was allowed to bind to it. After several washes, the titer of the experiment was determined to rate on the binding efficiency.
Reelin was identified from affinity chromatography proteomics data. […] The binding efficiency was evaluated based on the titer (PFU/ml) of each sample. […]

VEGFko GBM = assay: Peptide-phage homing in glioma-bearing mice; format: in vivo, mouse; settings: peptide-phage i.v., 1 h
Excerpt: (§1) Animal experimentation procedures were approved by the Estonian Ministry of Agriculture, Committee of Animal Experimentation, Project #48 and #159. Balb/c mice and Athymic nude mice (HD) were housed in a pathogen-free environment at the Animal Facility of the Institute of Biomedicine and Translational Medicine, University of Tartu (Tartu, Estonia). For induction of orthotopic GBM xenografts in nude mice, 7×10^5 (WT-GBM, VEGFko GBM) cells were implanted intracranially in the right striatum of the brain (ccordinates: 2 mm laterally and 2 mm posteriorly from bregma and at 2.5 mm depth). Intracranial tumors developed for 6-7 days (WT-GBM) and 12-14 days (VEGFko GBM) before performing experiments.
(§2) Homing of CVGTNCY (SEQ ID NO:2) was analyzed in angiogenic WT-GBM and infiltrative VEGFko GBM models. First, CVGTNCY (SEQ ID NO:2) peptide-phage homing was evaluated based on titer after systemic injection into the glioma-bearing mice and perfusion with PBS.

WT-GBM = assay: Peptide-phage homing in glioma-bearing mice; format: in vivo, mouse; settings: peptide-phage i.v., 1 h
Excerpt: as §1, §2

[1] = test system: GBM and normal brain parenchyma; assay: Synthetic peptide homing in glioma-bearing mice (IHC); format: in vivo, mouse; settings: synthetic peptide i.v., 1 h
Method: CVGTNCY (SEQ ID NO:2) peptide-phage or control phage were injected iv into mice, after one hour circulation animals were perfused with 20 ml PBS, organs were collected, weighed, and dropped to 1% NP40-LB solution. Organs were homogenized and titer of each tissue was determined. FAM-labeled peptides (2 mM of peptide in PBS) were injected intravenously and 3 hours later the animals were perfused with 20 mL of PBS. The organs were excised, snap-frozen in the vapor of liquid nitrogen, and stored at −80 °C. For confocal microscopy, the tissues were sectioned at 15 μm and stained with antibodies and DAPI.
Cryosections (15 μm) on Superfrost Plus slides were fixed in cold methanol, washed in PBS, treated with 3% hydrogen peroxide, and blocked in PBS containing 0.05% Tween-20, 5% BSA, and 5% goat serum (GE Healthcare, UK) for 1 h. The sections were immunostained with rabbit anti-fluorescein (cat #A889, Thermo Fisher Scientific, MA, USA) antibody overnight at +4 °C. […] Sections were imaged with Leica Aperio VERSA microscope slide scanner. Imaged were processed with Aperio Image Scope (v12.4.3.5008).
The synthetic CVGTNCY (SEQ ID NO:2) peptide or scrambled CVGTNCY (SEQ ID NO:2) homing in WT-GBM and VEGFko GBM-bearing mice was analyzed after i.v. injection and perfusion of the animals. Cryosections of glioma-bearing brains were stained with anti-FAM antibody and tyramide amplification kit to enhance the signal of the peptide.
(§3) To assess homing of CVG peptide in glioblastoma, CVGTNCY (SEQ ID NO:2) peptide-phage was injected iv into mice bearing either WT-GBM, VEGFko, U87MG or NCH421k GBM, and to mice without a tumor. At one hour time point mice were perfused, brains and control organs collected and titered. […] (FIGS. 17A-17B) Distribution of CVG peptide in GBM and brain parenchyma was also assessed. CVGTNCY (SEQ ID NO:2) peptide or its scrambled version (CVYTCNG; (SEQ ID NO: 68)) was injected iv into glioma bearing mice, after 1 hour circulation mice were perfused and tissues of interest snap-frozen in liquid nitrogen.

[2] = test system: WT-GBM, VEGFko, U87MG or NCH421k GBM; assay: CVG peptide-phage homing in glioblastoma (four models); format: in vivo, mouse; settings: peptide-phage i.v., 1 h
Method: as §3

P3 stem cells = assay: In vitro phage binding to cells; format: cell-based, human; settings: 4 °C, 1 h, highest ratio
Method: (§4) To assess the binding of Cerepep phage, the cells were cultured in 24-well plates on polylysine coated glass coverslips until 80-90% confluency. The cells were incubated with Cerepep or control insertless peptide-phage at a final concentration of 5×10^7 pfu in 1 ml of DMEM+BSA (1%) at 4 °C for 1 h on a rocking platform. The wells were washed 4 times with 1 ml of DMEM+BSA (1%), the cells were lysed in 1 ml LB+NP40 and the amount of phage bound to the cells was determined by titering.
(§5) Binding of SRRVISRAKLAAAL (SEQ ID NO:9) phage to a panel of different cell lines was studied in vitro.

Neuro2A = assay: In vitro phage binding to cells; format: cell-based, mouse; settings: 4 °C, 1 h
Method: as §4, §5

WT GBM = assay: In vitro phage binding to cells; format: cell-based, mouse; settings: 4 °C, 1 h
Method: as §4, §5

[3] = WT-GBM and VEGFko GBM-bearing mice

Substance | binding to Reelin (Reelin) | accumulation in VEGFko GBM compared to normal brain parenchyma (VEGFko GBM) | ratio of CVGTNCY over G7, normal brain vs GBM (WT-GBM; WT-GBM and VEGFko GBM) | accumulation in WT-GBM compared to normal brain parenchyma (WT-GBM) | cell type targeted in normal brain [1] | detection in brain parenchyma [1, 3] | detection/targeting in GBM [1, 3] | detection in brain parenchyma ([1]; WT-GBM and VEGFko GBM-bearing mice, listed as CVG) | PFU per mg of GBM vs normal brain [2] | ratio of CVG over G7 in GBM vs normal brain [2] | binding of peptide-phage, fold over insertless phage (P3 stem cells) | binding of peptide-phage, fold over insertless phage (Neuro2A) | binding of peptide-phage, fold over insertless phage (WT GBM)
CVGTNCY | specific binding | 2 times | higher in the normal brain parenchyma than in GBMs | 6 times | binding to the cortical neurons in the normal brain | detected in the brain parenchyma | activated microglia in GBM | homed to brain parenchyma and GBM | greater than normal brain tissue | lower than in normal brain | – | – | –
SRRVISRAKLAAAL [Cerepep, SRRVISRAKLAAAL] | – | – | – | – | – | – | – | – | – | – | at least 50 fold | at least 50 fold | at least 50 fold
